Reference: US7514534 (DYAX, dated 2009)
Where a chain is given by its changes, count along the chain named.

T1: MMP-26 catalytic domain, tagged with hexa-histidine (human, UniProt Q9NRE1 90-261)
T1 construct: the forward primer adds Met-Ala before it; also called MMP-26 target protein; Matrilysin-2; not shown: Also any N-terminal residues added by the forward primer (Met-Ala according to our card; the primers were not visible to me)
T1 sequence: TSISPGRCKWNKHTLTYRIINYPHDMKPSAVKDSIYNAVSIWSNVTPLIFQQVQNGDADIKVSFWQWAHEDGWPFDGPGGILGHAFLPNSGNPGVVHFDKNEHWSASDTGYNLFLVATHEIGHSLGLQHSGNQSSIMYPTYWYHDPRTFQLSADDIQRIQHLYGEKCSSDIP

B1: A06 (antibody, human IgG4, V domains shown)
VH: EVQLLESGGGLVQPGGSLRLSCAASGFTFSPYHMGWVRQAPGKGLEWVSGIYPSGGWTNYADSVKGRFTISRDNSKNTLYLQMNSLRAEDTAVYYCARDGYSSGWFRYWGQGTLVTVSS
VL: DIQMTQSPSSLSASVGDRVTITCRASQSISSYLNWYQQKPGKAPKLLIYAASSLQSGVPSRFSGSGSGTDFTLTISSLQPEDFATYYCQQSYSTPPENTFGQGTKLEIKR
notes: whole human IgG4
B2: D02 (antibody, human IgG4, V domains shown)
VH: EVQLLESGGGLVQPGGSLRLSCAASGFTFSWYDMAWVRQAPGKGLEWVSRIVPSGGHTSYADSVKGRFTISRDNFKNTLYLQMNSLRAEDTAVYYCARRASRPEFFDYWGQGALVTVSS
VL: DIQMTQSPSFLSASVGDRVTITCRASQGISTYLAWYQQKPGKAPKVLIYTASTLQSGVPSRFSGSGSGTEFTLTISSLQPEDFATYYCQQSYITPPEVTFGPGTKVDIKR
notes: whole human IgG4
B3: A05 (antibody, human IgG4, V domains shown)
VH: EVQLLESGGGLVQPGGSLRLSCAASGFTFSVYSMNWVRQAPGKGLEWVSYIVPSGGNTPYADSVKGRFTISRDNSKNTLYLQMNSLRAEDTAVYYCARDGAATVDLDYWGQGTLVTVSS
VL: DIQMTQSPSSLSLSPGERATLSCRASQSVSSYLAWYQQKPGQAPRLLIYDASNRATGIPARFSGSGSGTDFTLTISSLEPEDFAVYYCQQRSNWPRTFGGGTKVEIKR
notes: whole human IgG4
B4: D08 (antibody, human IgG4, V domains shown)
VH: EVQLLESGGGLVQPGGSLRLSCAASGFTFSFYAMWWVRQAPGKGLEWVSRIYSSGGKTWYADSVKGRFTISRDNSKNTLYLQMNSLRAEDTAVYYCARVGMSTYAFDIWGQGTMVTVSS
VL: DIQMTQSPSSLSASVGDRVTITCRASQSISDYLNWYQQKPGKAPDLLIYAASSLQSGVPSRFSGSGSGTDFTLTVSSLQPEDFATYFCQQSYSIPLTFGGGTKVEITR
notes: whole human IgG4
B5: D03 (antibody, human IgG4, V domains shown)
VH: EVQLLESGGGLVQPGGSLRLSCAASGFTFSWYRMDWVRQAPGKGLEWVSVIGSSGGMTYYADSVKGRFTISRDNSKNTLYLQMNSLRAEDTAVYYCARRVVGGAGMDVWGQGTTVTVSS
VL: DIQMTQSPSAMSASVGDRVTITCRASQVMINYIAWFRQKPGKVPERLIYAASTLQNGVPSRFSGSGSGTDFTLTISRLEPEDFAVYYCQHRITWPPALTFGGGTTVEIKR
notes: whole human IgG4
B6: C11 (antibody, human IgG4, V domains shown)
VH: EVQLLESGGGLVQPGGSLRLSCAASGFTFSEYPMWWVRQAPGKGLEWVSWIYPSGGNTDYADSVKGRFTISRDNSKNTLYLQMNSLRAEDTAVYYCAIPYCSSSSCPLHWGQGTLVTVSS
VL: QSELTQPPSASGSPGQSVTISCTGTSSDVGGYNYVSWYQQHPDKAPKLLIYEVTQRPSGVPDRFSGSRSGNTASLTVSGLQAEDEADYYCSSYAGRNNLYVFGPGTKVTVLG
notes: whole human IgG4
B7: A07 (antibody, human IgG4, V domains shown)
VH: EVQLLESGGGLVQPGGSLRLSCAASGFTFSEYNMMWVRQAPGKGLEWVSVISPSGGGTLYADSVKGRFTISRDNSKNTLYLQMNSLRAEDTAVYYCARDLNNSSPPDSNDAFDIWGRGTMVTVSS
VL: B6 VL
notes: whole human IgG4
B8: D07 (antibody, human IgG4, V domains shown)
VH: EVQLLESGGGLVQPGGSLRLSCAASGFTFSEYNMFWVRQAPGKGLEWVSYIYSSGGSTDYADSVKGRFTISRDNSKNTLYLQMNSLRAEDTAVYYCARVGIAARPFDPWGQGTLVTVSS
VL: QSELTQPASVSGSPGQSITISCTGTNSDIGGYNYVSWYQQHPGKVPKLLIFEVNNRPSGVSSRFSGSKSGDTASLTISGLQPEDEAVYYCGSFTVSVTYVFGTGTKVTVLG
notes: whole human IgG4
B9: D04 (antibody, human IgG4, V domains shown)
VH: EVQLLESGGGLVQPGGSLRLSCAASGFTFSDYQMMWVRQAPGKGLEWVSRISPSGGMTRYADSVKGRFTISRDNSKNTLYLPMNSLRAEDTAVYYCARSGPYYFDYWGQGTLVTVSS
VL: DIQMTQSPSSLSASVGDRVAITCRASQSIDTYLNWYQQKPGKAPKLLIYAASKLEDGVPSRFSGSGTGTDFTLTIRSLQPEDFASYFCQQSYSSPGITFGPGTKVEIKR
notes: whole human IgG4
B10: A09 (antibody, human IgG4, V domains shown)
VH: EVQLLESGGGLVQPGGSLRLSCAASGFTFSWYDMYWVRQAPGKGLEWVSSIYSSGGYTAYADSVKGRFTISRDNSKNTLYLQMNSLRAEDTAVYYCAKDRDPCSRTTCYNWFDPWGQGTLVTVSS
VL: QSELTQPPSASGTPGQRVTISCSGGSSNIGSNFVYWYRQLPGTAPKLLIYRNYQRPSGVPDRFSGSKSGTSASLAISGLLSEDEADYYCAAWDDNVGGVFGSGTKVTVLG
notes: whole human IgG4
B11: D09 (antibody, V domains shown)
VH: EVQLLESGGGLVQPGGSLRLSCAASGFTFSHYNMHWVRQAPGKGLEWVSGIVSSGGNTGYADSVKGRFTISRDNSKNTLYLQMNSLRAEDTAVDYCARVVRYSSGWYYWFDPWGQGTLVTVSS
VL: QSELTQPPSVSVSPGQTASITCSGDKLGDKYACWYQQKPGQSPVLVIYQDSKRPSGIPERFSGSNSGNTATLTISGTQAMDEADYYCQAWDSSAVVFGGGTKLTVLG
notes: whole human IgG4
B12: A04 (antibody, human IgG4, V domains shown)
VH: EVQLLESGGGLVQPGGSLRLSCAASGFTFSEYNMAWVRQAPGKGLEWVSRIGSSGGKTKYADSVKGRFTISRDNSKNTLYLQMNSLRAEDTAVYYCARDEAPDYGDDAEAFDIWGQGTMVTVSS
VL: QSALTQPPSASGTPGQRVTISCSGGYSNMGSNYAHWYQQVPGTAPKLLIYNNNQRPSGVPDRFSGSKSGTSASLAISGLRSEDEADYYCAAWDENLSGPVFGTGTKVTVLG
notes: whole human IgG4
B13: A08 (antibody, human IgG4, V domains shown)
VH: EVQLLESGGGLVQPGGSLRLSCAASGFTFSVYDMPWVRQAPGKGLEWVSVIYPSGGFTRYADSVKGRFTISRDNSKNTLYLQMNSLRAEDTAVYYCAADPTIQLWAYYYGMDVWGQGTTVTVSS
VL: B12 VL with A3V, A10V, S27P, V40L, N52D, E94D, N95S, T103G, V107L
notes: whole human IgG4
B14: D06 (antibody, human IgG4, V domains shown)
VH: EVQLLESGGGLVQPGGSLRLSCAASGFTFSGYIMEWVRQAPGKGLEWVSVIVSSGGFTMYADSVKGRFTISRDNSKNTLYLQMNSLRAEDTAVYYCARVGDSKGGYYLDYWGQGTLVTVSS
VL: DIQMTQSPSSLSASVGDRVTITCRTSQIINTYLNWYQQKPGKAPKLLIYAASTLQGGVPSRFSGSGSGTDFTLTIKSLQPDDFATYYCQQSYTSPRTFGQGTKVEIKR
notes: whole human IgG4
B15: D01 (antibody, V domains shown)
VH: EVQLLESGGGLVQPGGSLRLSCAASGFTFSMYLMFWVRQAPGKGLEWVSVISSSGGETSYADSVKGRFTISRDNSKNTLYLQMNSLRAEDTAVYYCARQVSDWTRLYSFDYWGQGTLVTVSS
VL: QSELTQPPSASGTPGQRITISCSGSSSNIGSNYVYWYQQFPETAPKLLISRNDQRPSGVPDRFSGSKSGTSASLAISGLRSEDEADYYCASWDDSLSGVVFGGGTKLTVLG
notes: whole human IgG4

Legend:
[1] = biological target: T2, MMP-3 (UniProt P08254 100-477, limits assumed); experiment: cross-reactivity ELISA on coated MMP
T2 construct: also called stromelysin-1
Experimental: (§1) Twenty-one of the reformatted MMP-26 antibodies were tested for MMP cross reactivity by ELISA analysis. MMP-3, MMP-7, MMP-9, and MMP-12 were coated onto Immulon 2 HB 96-well plates at a concentration of 1 μg/ml for 1 hour at 37° C. The plates were blocked with PBS-T containing 5% (w/v) nonfat dry milk for thirty minutes and subsequently washed with PBS-T. Each antibody was tested for reactivity to all of the above mentioned MMPs at a concentration of 2 μg/ml with an incubation time of 1 hour. Bound antibody was detected with an HRP-conjugated anti-human secondary antibody (Table 3, NT=not tested.).

[2] = biological target: T3, MMP-9 (UniProt P14780 107-707, limits assumed); experiment: cross-reactivity ELISA on coated MMP
T3 construct: also called gelatinase
Experimental: as §1

[3] = biological target: T1, MMP-26 catalytic domain, tagged with …; experiment: bead-based ELISA, MMP-26 on nickel beads, IgG4 culture supernatant
Experimental: Reformatted and expressed full-length MMP-26 binding IgG4 antibodies were tested for specificity in a bead-based ELISA. Approximately 1.25 μg of MMP-26 protein was bound to nickel-coated magnetic beads (Novagen) which had been pre-blocked with phosphate buffered saline containing 5% (w/v) nonfat dry milk and 0.05% (v/v) Tween-20. The beads were washed in phosphate buffered saline containing 0.05% (v/v) Tween-20 (PBS-T) and 100 uls of unpurified cell culture supernatant containing transiently produced MMP-26-binding antibodies was added and incubated on a rotator for sixty minutes. The beads were washed with PBS-T and MMP-26-binding antibodies were detected with an HRP-conjugated anti-human secondary antibody. Data is expressed in fold over background where background consists of beads, blocking agent, and culture supernatant containing target antibody (Table 2; in this table, Results shown as fold over background (F>B) where background consists of beads, blocking agent, and culture supernatant).

T3 sequence (P14780 107-707 limits assumed): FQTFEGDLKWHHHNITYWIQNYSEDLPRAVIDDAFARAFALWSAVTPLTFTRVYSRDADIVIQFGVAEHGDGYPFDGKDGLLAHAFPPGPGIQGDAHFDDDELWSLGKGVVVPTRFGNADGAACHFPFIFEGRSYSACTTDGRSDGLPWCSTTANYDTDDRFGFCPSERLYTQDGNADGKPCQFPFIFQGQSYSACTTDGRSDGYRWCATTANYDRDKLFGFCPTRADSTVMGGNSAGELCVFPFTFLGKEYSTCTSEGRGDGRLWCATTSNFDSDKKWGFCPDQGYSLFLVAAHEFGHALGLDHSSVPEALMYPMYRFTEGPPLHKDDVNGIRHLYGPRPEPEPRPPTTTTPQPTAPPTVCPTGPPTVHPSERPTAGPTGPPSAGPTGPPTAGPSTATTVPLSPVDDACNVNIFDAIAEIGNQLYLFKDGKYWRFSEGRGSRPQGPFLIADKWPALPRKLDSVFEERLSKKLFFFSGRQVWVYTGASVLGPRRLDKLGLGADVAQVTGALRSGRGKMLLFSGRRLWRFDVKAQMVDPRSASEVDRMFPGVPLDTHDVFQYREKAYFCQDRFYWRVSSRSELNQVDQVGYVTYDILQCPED
T2 sequence (P08254 100-477 limits assumed): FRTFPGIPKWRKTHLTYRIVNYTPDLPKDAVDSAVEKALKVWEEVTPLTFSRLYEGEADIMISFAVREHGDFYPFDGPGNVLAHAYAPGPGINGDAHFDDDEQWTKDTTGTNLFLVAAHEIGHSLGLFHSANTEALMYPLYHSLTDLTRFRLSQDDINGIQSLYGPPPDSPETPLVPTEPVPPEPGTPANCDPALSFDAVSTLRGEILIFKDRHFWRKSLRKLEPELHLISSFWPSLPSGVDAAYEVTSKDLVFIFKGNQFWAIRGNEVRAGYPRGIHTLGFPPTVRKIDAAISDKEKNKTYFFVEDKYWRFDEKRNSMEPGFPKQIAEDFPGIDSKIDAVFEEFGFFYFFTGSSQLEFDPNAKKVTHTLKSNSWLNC

Binder	binding result [1]	binding result [2]	F > B (fold over background) [3] [fold over background]
B1	no binding (tested: 2 µg/ml)	no binding (tested: 2 µg/ml)	5.4
B2	no binding (tested: 2 µg/ml)	no binding (tested: 2 µg/ml)	3.3
B3	no binding (tested: 2 µg/ml)	no binding (tested: 2 µg/ml)	2.48
B4	no binding (tested: 2 µg/ml)	no binding (tested: 2 µg/ml)	3
B5	no binding (tested: 2 µg/ml)	no binding (tested: 2 µg/ml)	2.4
B6	no binding (tested: 2 µg/ml)	no binding (tested: 2 µg/ml)	2.6
B7	no binding (tested: 2 µg/ml)	no binding (tested: 2 µg/ml)	8.38
B8	no binding (tested: 2 µg/ml)	no binding (tested: 2 µg/ml)	3.3
B9	no binding (tested: 2 µg/ml)	no binding (tested: 2 µg/ml)	2.6
B10	no binding (tested: 2 µg/ml)	no binding (tested: 2 µg/ml)	2.5
B11	no binding (tested: 2 µg/ml)	no binding (tested: 2 µg/ml)	4.3
B12	no binding (tested: 2 µg/ml)	no binding (tested: 2 µg/ml)	3.17
B13	no binding (tested: 2 µg/ml)	no binding (tested: 2 µg/ml)	1.94
B14	no binding (tested: 2 µg/ml)	no binding (tested: 2 µg/ml)	3.5
B15	no binding (tested: 2 µg/ml)	no binding (tested: 2 µg/ml)	3
